# Test results as given in the supplement of paper PMC9942255.
# Tested on: Bacillus subtilis DB104 (SP-AmyQ fusion secretion)
# Assay: AmyQ secretion efficiency, weighted average sort bin (1 = best secretion, 10 = worst) (bin number (weighted average, 1-10)); higher = lower secretion efficiency
# Procedure, shortened: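 Occupied alginate beads were sorted by large-particle flow cytometry into 10 equally populated bins according to green/red fluorescence ratio. Each bead (~65 nL) held fluorescein-starch and about 0.3 cells of a B. subtilis DB104 library expressing mature AmyQ fused to designed signal peptides from the amyE locus, and beads were grown about 13 h at room temperature and stained with nile red before sorting. Bin amplicons were Illumina-sequenced, and the secretion score is the read-frequency-weighted average bin number, normalised to beads per bin, excluding low-abundance sequences.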
row,Sequence,AmyQ secretion efficiency
1,MSLNKRVSMFLVALTMCGGLFVTPAKAVKT,2.92
2,MSLWMSKTLVVLFTIVTFGLVSPPAALMADKP,2.43
3,MSLYTVIASILLSFLSVLSGGHHESKAFPV,5.37
4,MSMIGLLFMLCLAALFTIGFPAQQADAAEA,2
5,MSMMLRRNFKRFIAAFLVLALMISLVPADVLAKST,1.81
6,MSMMSKLSLGVASAALGLALVGGGTWAAFN,5.67
7,MSMVMLATALFLGLTPAGANAADL,5.37
8,MSMWMITIAMLILAGIALFVFISPLKSHKT,7.42
9,MSNLCVMMLLFSAIASFPVSAQAKDQ,3.93
10,MSNMSCMLVVSVTLFFSFLTIGPLAHAQNS,1.7
11,MSPVFPLILSAVLFLSCFFGARQTEASASKR,2.21
12,MSRIRIPMTLALGAALTIAPLSFASAEEN,3.2
13,MSRITINIITMFIAAAVISLTGTAEAAEK,2.45
14,MSSCGGILIVCSLAAILLLIPSVSFAADS,4.26
15,MSSGIIVAGLAVSAVVGSSMAAAPAEAKTI,6.57
16,MSSGTVIASILLSFLSVLSGGHHESKAFPV,6.28
17,MSSKAWFLPLVCVLLISGWLAPAASASAQTT,1.72
18,MSSMTCKLVVSVTLFFSFLTIGPLAHAQNS,1.57
19,MSSSVKIAGVLTVAAAAMTAKMYATAKGN,4.6
20,MSSTITFVLTMCFLGLILFVPTALADNS,2.16
21,MSSYIKVLTMCFLGLILFVPTALADNS,1.7
22,MSTFLIGAGVAAVILSGWFIADHQTHSQEM,6.2
23,MSTGILAAGLTASAIVGTTLVVTPAEAATI,4.73
24,MSTGTILVIASILLSFLSVLSGGHHESKAFPV,6.64

row,Sequence,AmyQ secretion efficiency
1,MSTGTSGSLISSLIVLSTVVISSLLFPGAAGASSK,2.34
2,MSTIGLLFMLCLAALFTIGFPAQQADAAEA,2.8
3,MSTIWIGMLAAAVLLLMVPKVSLADAA,6.21
4,MSTKQVMLALTAAAGLGLTALHSAPAAKAAPL,2.43
5,MSTLVLCVSILAVILSGVALTQLS,6.38
6,MSTMIVRMTLPLLIVCLAFSSFSASARAASE,2.3
7,MSTNLLSSLAISALSLGLLVSAPTASFAAES,3.94
8,MSTSTSSSLISSTVLSTVVISSLLFPGAAGASSK,2.7
9,MSTTIIITATTAVVLGSTLFAGAASAQSI,2.61
10,MSVCQKSIVRFLVSLIIGTFVISVPFMANAQSD,1.68
11,MSVMTTMLLSTAAGLLLSLTATSVSAHYV,4.5
12,MTFTKVVGFLSVLGLAAVFPLTAQAEKA,3.02
13,MTGGSAVLLSLIMLIAGFLISFSFQM,7.63
14,MTGGVILAAFILVGSTLGAFSFSSDASAKHV,3.83
15,MTGLKMLSMLTVMIASLFIFSSQALAVQY,1.83
16,MTGLWRSLALCGLALTLAPCAQAAEP,2.01
17,MTGMLGSMLLITAGILVFFAVVVKDVFAAGL,4.32
18,MTGSLLSSLAISALSLGLLVSAPTASFAAES,5.96
19,MTGSSVITCVMAASLTLGSLLPAGYATAKED,4.28
20,MTGTIITATTAVVLGSTLFAGAASAQSI,2.31
21,MTGTTVSTAIIIISVMLSFVIAVFHTIHASELTP,4.15
22,MTGWLIIAVSLAIAIVLFMYTKGEAKAAGM,7.08
23,MTGYYKVLTMCFLGLILFVPTALADNS,1.69
24,MTIFLMAVFVIMISFLIATVNVNTAHAAID,6.34

row,Sequence,AmyQ secretion efficiency
1,MTIIIAIIAAVIVIAALITFNVRNASPG,7.45
2,MTKAFLVFLSVVLVTTVFLVKQQESVAQAKQL,5.72
3,MTKIGLLFMLCLAALFTIGFPAQQADAAEA,3.42
4,MTKKAKKKKLVCVLLISGWLAPAASASAQTT,2.39
5,MTKKARKLPLVCVLLISGWLAPAASASAQTT,1.96
6,MTKKAWFLPLVCVLLIDEDLAPAASASAQTT,2.58
7,MTKKAWFLPLVCVLLIEEEEEEAASASAQTT,6.12
8,MTKKAWFLPLVCVLLIRKKLAPAASASAQTT,7.9
9,MTKKAWFLPLVCVLLISGWLAASAQTT,6.17
10,MTKKAWFLPLVCVLLISGWLAPAASASAQED,2.97
11,MTKKAWFLPLVCVLLISGWLAPAASASAQTD,1.97
12,MTKKAWFLPLVCVLLISGWLAPAASASAQTK,1.59
13,MTKKAWFLPLVCVLLISGWLAPAASASDQTT,2.72
14,MTKKAWFLPLVCVLLISGWLAPAASASEQTT,1.79
15,MTKKAWFLPLVCVLLISGWLAPAASASFQTT,2.38
16,MTKKAWFLPLVCVLLISGWLAPAASASGQTT,1.87
17,MTKKAWFLPLVCVLLISGWLAPAASASHQTT,2.01
18,MTKKAWFLPLVCVLLISGWLAPAASASKQTT,2.02
19,MTKKAWFLPLVCVLLISGWLAPAASASLQTT,3.41
20,MTKKAWFLPLVCVLLISGWLAPAASASMQTT,2.07
21,MTKKAWFLPLVCVLLISGWLAPAASASNQTT,2.2
22,MTKKAWFLPLVCVLLISGWLAPAASASPQTT,2.48
23,MTKKAWFLPLVCVLLISGWLAPAASASQQTT,2.02
24,MTKKAWFLPLVCVLLISGWLAPAASASRQTT,1.94

row,Sequence,AmyQ secretion efficiency
1,MTKKAWFLPLVCVLLISGWLAPAASASSQTT,1.17
2,MTKKAWFLPLVCVLLISGWLAPAASASTQTT,2.01
3,MTKKAWFLPLVCVLLISGWLAPAASASVQTT,2.48
4,MTKKAWFLPLVCVLLISGWLAPAASASWQTT,3.5
5,MTKKAWFLPLVCVLLISGWLAPAASCSAQTT,3.03
6,MTKKAWFLPLVCVLLISGWLAPAASGSAQTT,2.23
7,MTKKAWFLPLVCVLLISGWLAPAASISAQTT,2.33
8,MTKKAWFLPLVCVLLISGWLAPAASKSAQTT,4.7
9,MTKKAWFLPLVCVLLISGWLAPAASLSAQTT,3.89
10,MTKKAWFLPLVCVLLISGWLAPAASMSAQTT,3.47
11,MTKKAWFLPLVCVLLISGWLAPAASRSAQTT,5.9
12,MTKKAWFLPLVCVLLISGWLAPAASSSAQTT,3
13,MTKKAWFLPLVCVLLISGWLAPAASVSAQTT,2.17
14,MTKKAWFLPLVCVLLIVIALIFSFASGWLAPAASASAQTT,2.12
15,MTKKAWFLPLVCVLLIVSWLASAASASAQTT,2.08
16,MTKKAWFLPLVCVSGWLAPAASASAQTT,2.07
17,MTKKAWFLTLVCVLLISGWLAPAASASAQTT,1.56
18,MTKKFTIMSAWFLPLVCVLLISGWLAPAASASAQTT,1.82
19,MTKKGWQLPLVCVLLISGWLAPAASASAQTT,1.79
20,MTKKRRRAWFLPLVCVLLISGWLAPAASASAQTT,2.33
21,MTKKRWKTPYVCVLLISGWLAPAASASAQTT,1.44
